Reference: patent publication US8840891 (RSR, dated 2014)
Read-outs that look alike come from different tables or passages of the source. Blank lines part the entries; values can stand above or below the molecule they belong to.

Experiments:
Test in all cases: cell-based or functional assay
[1] = molecular target: TSHR with Arg255 mutated to Alanine (human) (UniProt P16473)
[2] = molecular target: wild type human TSHR (human) (UniProt P16473)
[3] = molecular target: TSHR with Ile60 mutated to Alanine (human) (UniProt P16473)
[4] = molecular target: wild type human TSHR (human) (UniProt P16473); remark: listed apart in the source
[5] = molecular target: human TSHR (wild type) expressed in CHO cells (human) (UniProt P16473)
[6] = molecular target: TSHR with Lys58 mutated to Alanine (human) (UniProt P16473)
[7] = molecular target: human TSHR Asp203Ala, expressed in CHO cells (human) (UniProt P16473)
[8] = molecular target: human TSHR expressed on CHO cells (human) (UniProt P16473)
[9] = molecular target: wild type human TSHR (human) (UniProt P16473); remark: listed apart in the source
[10] = molecular target: human TSHR with activating mutation A623I, on CHO cells (human) (UniProt P16473)
[11] = molecular target: human TSHR with activating mutation S281I, on CHO cells (human) (UniProt P16473)

Molecule: 5C9 IgG (antibody)
- Mutated/wild type (%); 5C9 0.01 µg/mL + TSH [1]: 123%
- Mutated/wild type (%); 5C9 0.1 µg/mL + TSH [1]: 109%
- Mutated/wild type (%); 5C9 1.0 µg/mL + TSH [1]: 201%
- Mutated/wild type (%); 5C9 10 µg/mL + TSH [1]: 80%
- Mutated/wild type (%); 5C9 100 µg/mL + TSH [1]: 80%
- Mutated/wild type (%); 5C9 100 µg/mL only [1]: 775%
- cyclic AMP; 5C9 0.01 µg/mL + TSH (fmol/cell well) [1]: 8120
- cyclic AMP; 5C9 0.1 µg/mL + TSH (fmol/cell well) [1]: 4140
- cyclic AMP; 5C9 1.0 µg/mL + TSH (fmol/cell well) [1]: 1940
- cyclic AMP; 5C9 10 µg/mL + TSH (fmol/cell well) [1]: 692
- cyclic AMP; 5C9 100 µg/mL + TSH (fmol/cell well) [1]: 809
- cyclic AMP; 5C9 100 µg/mL only (fmol/cell well) [1]: 248
- cyclic AMP; 5C9 0.01 µg/mL + TSH (fmol/cell well) [2]: 6620
- cyclic AMP; 5C9 0.1 µg/mL + TSH (fmol/cell well) [2]: 3790
- cyclic AMP; 5C9 1.0 µg/mL + TSH (fmol/cell well) [2]: 966
- cyclic AMP; 5C9 10 µg/mL + TSH (fmol/cell well) [2]: 867
- cyclic AMP; 5C9 100 µg/mL + TSH (fmol/cell well) [2]: 1010
- cyclic AMP; 5C9 100 µg/mL only (fmol/cell well) [2]: 32
- Mutated/wild type (%); 5C9 0.01 µg/mL + TSH [3]: 236%
- Mutated/wild type (%); 5C9 0.1 µg/mL + TSH [3]: 164%
- Mutated/wild type (%); 5C9 1.0 µg/mL + TSH [3]: 210%
- Mutated/wild type (%); 5C9 10 µg/mL + TSH [3]: 68%
- Mutated/wild type (%); 5C9 100 µg/mL + TSH [3]: 181%
- Mutated/wild type (%); 5C9 100 µg/mL only [3]: 426%
- cyclic AMP; 5C9 0.01 µg/mL + TSH (fmol/cell well) [3]: 19000
- cyclic AMP; 5C9 0.1 µg/mL + TSH (fmol/cell well) [3]: 11600
- cyclic AMP; 5C9 1.0 µg/mL + TSH (fmol/cell well) [3]: 3290
- cyclic AMP; 5C9 10 µg/mL + TSH (fmol/cell well) [3]: 1210
- cyclic AMP; 5C9 100 µg/mL + TSH (fmol/cell well) [3]: 3130
- cyclic AMP; 5C9 100 µg/mL only (fmol/cell well) [3]: 260
- cyclic AMP; 5C9 0.01 µg/mL + TSH (fmol/cell well) [4]: 8020
- cyclic AMP; 5C9 0.1 µg/mL + TSH (fmol/cell well) [4]: 7100
- cyclic AMP; 5C9 1.0 µg/mL + TSH (fmol/cell well) [4]: 1570
- cyclic AMP; 5C9 10 µg/mL + TSH (fmol/cell well) [4]: 1770
- cyclic AMP; 5C9 100 µg/mL + TSH (fmol/cell well) [4]: 1730
- cyclic AMP; 5C9 100 µg/mL only (fmol/cell well) [4]: 61
- % inhibition of TSH stimulated cyclic AMP level; pTSH 3 ng/mL + 1 µg/mL 5C9 [5]: 92%
- Cyclic AMP produced; 5C9 0.01 µg/mL + pTSH 3 ng/mL; Experiment 1 (fmol/cell well) [5]: 17200
- Cyclic AMP produced; 5C9 0.01 µg/mL + pTSH 3 ng/mL; Experiment 2 (fmol/cell well) [5]: 14100
- Cyclic AMP produced; 5C9 0.1 µg/mL + pTSH 3 ng/mL; Experiment 1 (fmol/cell well) [5]: 5590
- Cyclic AMP produced; 5C9 0.1 µg/mL + pTSH 3 ng/mL; Experiment 2 (fmol/cell well) [5]: 4460
- Cyclic AMP produced; 5C9 1.0 µg/mL + pTSH 3 ng/mL; Experiment 1 (mean of duplicate determinations) (fmol/cell well) [5]: 759
- Cyclic AMP produced; 5C9 1.0 µg/mL + pTSH 3 ng/mL; Experiment 2 (fmol/cell well) [5]: 657
- Cyclic AMP produced; 5C9 10 µg/mL + pTSH 3 ng/mL; Experiment 1 (fmol/cell well) [5]: 366
- Cyclic AMP produced; 5C9 10 µg/mL + pTSH 3 ng/mL; Experiment 2 (fmol/cell well) [5]: 541
- Cyclic AMP produced; 5C9 100 µg/mL + pTSH 3 ng/mL; Experiment 1 (fmol/cell well) [5]: 344
- Cyclic AMP produced; 5C9 100 µg/mL + pTSH 3 ng/mL; Experiment 2 (fmol/cell well) [5]: 286
- Cyclic AMP produced; 5C9 100 µg/mL only (no TSH); Experiment 1 (fmol/cell well) [5]: 300
- Cyclic AMP produced; 5C9 100 µg/mL only (no TSH); Experiment 2 (fmol/cell well) [5]: 208
- cyclic AMP concentration; pTSH 3 ng/mL + 1 µg/mL 5C9 (fmol/cell well) [5]: 1110
- Mutated/wild type (%); 5C9 0.01 µg/mL + TSH [6]: 108%
- Mutated/wild type (%); 5C9 0.1 µg/mL + TSH [6]: 104%
- Mutated/wild type (%); 5C9 1.0 µg/mL + TSH [6]: 195%
- Mutated/wild type (%); 5C9 10 µg/mL + TSH [6]: 272%
- Mutated/wild type (%); 5C9 100 µg/mL + TSH [6]: 190%
- cyclic AMP; 5C9 0.01 µg/mL + TSH (fmol/cell well) [6]: 7910
- cyclic AMP; 5C9 0.1 µg/mL + TSH (fmol/cell well) [6]: 4820
- cyclic AMP; 5C9 1.0 µg/mL + TSH (fmol/cell well) [6]: 1790
- cyclic AMP; 5C9 10 µg/mL + TSH (fmol/cell well) [6]: 955
- cyclic AMP; 5C9 100 µg/mL + TSH (fmol/cell well) [6]: 1000
- cyclic AMP; 5C9 100 µg/mL only (fmol/cell well) [6]: < 25
- % inhibition of TSH stimulated cyclic AMP level; pTSH 3 ng/mL + 1 µg/mL 5C9 [7]: 4%
- cyclic AMP concentration; pTSH 3 ng/mL + 1 µg/mL 5C9 (mean of duplicate samples) (fmol/cell well) [7]: 9400
- Cyclic AMP, serum T1 + 0.001 µg/mL 5C9 IgG (fmol/cell well) [8]: 16900
- Cyclic AMP, serum T1 + 0.01 µg/mL 5C9 IgG (fmol/cell well) [8]: 20300
- Cyclic AMP, serum T1 + 0.1 µg/mL 5C9 IgG (fmol/cell well) [8]: 16200
- Cyclic AMP, serum T1 + 1 µg/mL 5C9 IgG (fmol/cell well) [8]: 2430
- Cyclic AMP, serum T1 + 10 µg/mL 5C9 IgG (fmol/cell well) [8]: 1120
- Cyclic AMP, serum T3 + 0.001 µg/mL 5C9 IgG (fmol/cell well) [8]: 11600
- Cyclic AMP, serum T3 + 0.01 µg/mL 5C9 IgG (fmol/cell well) [8]: 13700
- Cyclic AMP, serum T3 + 0.1 µg/mL 5C9 IgG (fmol/cell well) [8]: 10400
- Cyclic AMP, serum T3 + 1 µg/mL 5C9 IgG (fmol/cell well) [8]: 8080
- Cyclic AMP, serum T3 + 10 µg/mL 5C9 IgG (fmol/cell well) [8]: 7810
- Cyclic AMP, serum T6 + 0.001 µg/mL 5C9 IgG (fmol/cell well) [8]: 11800
- Cyclic AMP, serum T6 + 0.01 µg/mL 5C9 IgG (fmol/cell well) [8]: 13900
- Cyclic AMP, serum T6 + 0.1 µg/mL 5C9 IgG (fmol/cell well) [8]: 9530
- Cyclic AMP, serum T6 + 1 µg/mL 5C9 IgG (fmol/cell well) [8]: 2370
- Cyclic AMP, serum T6 + 10 µg/mL 5C9 IgG (fmol/cell well) [8]: 1030
- Cyclic AMP, serum T19 + 0.001 µg/mL 5C9 IgG (mean of duplicate) (fmol/cell well) [8]: 6470
- Cyclic AMP, serum T19 + 0.01 µg/mL 5C9 IgG (fmol/cell well) [8]: 5750
- Cyclic AMP, serum T19 + 0.1 µg/mL 5C9 IgG (fmol/cell well) [8]: 375
- Cyclic AMP, serum T19 + 1 µg/mL 5C9 IgG (fmol/cell well) [8]: 187
- Cyclic AMP, serum T19 + 10 µg/mL 5C9 IgG (fmol/cell well) [8]: 275
- Cyclic AMP, serum T20 + 0.001 µg/mL 5C9 IgG (mean of duplicate) (fmol/cell well) [8]: 4860
- Cyclic AMP, serum T20 + 0.01 µg/mL 5C9 IgG (fmol/cell well) [8]: 6490
- Cyclic AMP, serum T20 + 0.1 µg/mL 5C9 IgG (fmol/cell well) [8]: 2180
- cyclic AMP; 100 µg/mL 5C9 IgG only (fmol/cell well) [9]: 253
- cyclic AMP; 5C9 0.01 µg/mL + TSH (fmol/cell well) [9]: 7340
- cyclic AMP; 5C9 0.1 µg/mL + TSH (fmol/cell well) [9]: 4640
- cyclic AMP; 5C9 1.0 µg/mL + TSH (fmol/cell well) [9]: 918
- cyclic AMP; 5C9 10 µg/mL + TSH (fmol/cell well) [9]: 351
- cyclic AMP; 5C9 100 µg/mL + TSH (fmol/cell well) [9]: 528
- cyclic AMP; 5C9 100 µg/mL only (fmol/cell well) [9]: 47
- cyclic AMP; T21 + 0.001 µg/mL 5C9 IgG (fmol/cell well) [9]: 11300
- cyclic AMP; T21 + 0.01 µg/mL 5C9 IgG (fmol/cell well) [9]: 10400
- cyclic AMP; T21 + 0.1 µg/mL 5C9 IgG (fmol/cell well) [9]: 7480
- cyclic AMP; T21 + 1 µg/mL 5C9 IgG (fmol/cell well) [9]: 418
- cyclic AMP; T21 + 10 µg/mL 5C9 IgG (fmol/cell well) [9]: 303
- cyclic AMP; T21 + 100 µg/mL 5C9 IgG (fmol/cell well) [9]: 210

- basal cyclic AMP (buffer only 36.89); 5C9 IgG 0.001 µg/mL [10]: 26.5 pmol/mL
- basal cyclic AMP (buffer only 36.89); 5C9 IgG 0.01 µg/mL [10]: 27 pmol/mL
- basal cyclic AMP (buffer only 36.89); 5C9 IgG 0.1 µg/mL [10]: 19.8 pmol/mL
- basal cyclic AMP (buffer only 36.89); 5C9 IgG 1 µg/mL [10]: 16.4 pmol/mL
- % inhibition of basal cyclic AMP activity; 5C9 IgG 1 µg/mL [11]: 71%
B1: 5C9 IgG (human monoclonal autoantibody to the TSHR) (antibody, from another filing, V domains shown)
VH: EVQLVESGGGLIQPGGSLRLSCAASGFTVSSNYMSWVRQAPGKGLEWVSVTYSGGSTSYADSVKGRFTISRDNSKNTLYLQMNSLRAEDTAVYYCARGGRYCSSISCYARSGCDYWGQGTLVTVSS
VL: AIQMTQSPSSLSASVGDRVTITCRASQSISNYLNWYQQKPGKAPKLLIYAASSLQSGVPSRFSGSGSGTDFTLTISSLQPEDFATYYCQQSYSSPSTTFGQGTKLEIK
